Experimental data taken from PMC9157036.

Biological target: ferritin-based 24-meric nanoparticle with N-terminal protein A tag
Assay: SPR
Details: Fc fusion

For “RBD (residues 331aa-524aa) of the SARS-CoV-2 Omicron spike protein with an Fc tag in the C-terminus (from UniProt P0DTC2 331-524)”, the Kd was 0.187 µM.
